According to the supplement of paper PMC6757056:
± gives the standard deviation of the averaged measurements.

B1: library; a variant is named by its letters at N, in order (parent)
chain: GCUGUCACCGGUGUAUUACCCUAGUGGUCGACCGGUCUGAUGAGUCUNNNNNNAGACGAAACAGC

Legend:
hypoxanthine [1] = variants of: B1; assay: normalized RNA/DNA level with ligand (relative to sTRSVctl = 100) (log10 (% of sTRSVctl)); ligand: hypoxanthine (xanthine aptamer); higher = less ribozyme self-cleavage, higher mRNA level; conditions: ligand concentration (+) RNA-Seq: 5 mM, HEK293T, reporter: mCherry (pCS4076), ligand present: yes
Procedure, shortened: (§1)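 Total RNA, extracted with EDTA 72 h after HEK293T cells were transfected with 4 µg per 6-well well of reporter-linked ribozyme switch library plasmids, was reverse-transcribed, amplified, barcoded and sequenced. Ligand, if used, was added 1 h before transfection. RNA level was derived from RNA reads divided by DNA reads and normalized to a spiked-in non-cleaving sequence or to the top sequences. This was multiplied by 100 and log10-transformed, with the top set of 25 sequences and a ≥100 DNA read minimum.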

hypoxanthine [2] = variants of: B1; assay: normalized RNA/DNA level without ligand (relative to sTRSVctl = 100) (log10 (% of sTRSVctl)); ligand: hypoxanthine (xanthine aptamer); higher = less ribozyme self-cleavage, higher mRNA level; conditions: HEK293T, reporter: mCherry (pCS4076), ligand present: no
Procedure, shortened: as §1

Row | Variant | normalized RNA/DNA level with ligand (log10) (hypoxanthine [1]) | normalized RNA/DNA level without ligand (log10) (hypoxanthine [2])
1 | GCUGUCACCGGUGUAUUACCCUAGUGGUCGACCGGUCUGAUGAGUCUUGCUUGAGACGAAACAGC [UGCUUG] | 1.923 ± 0.019 | 1.85 ± 0.091
2 | GCUGUCACCGGUGUAUUACCCUAGUGGUCGACCGGUCUGAUGAGUCUCGCUUUAGACGAAACAGC [CGCUUU] | 1.911 ± 0.01 | 1.859 ± 0.009
3 | GCUGUCACCGGUGUAUUACCCUAGUGGUCGACCGGUCUGAUGAGUCUGGCUUUAGACGAAACAGC [GGCUUU] | 2.025 ± 0.0095 | 1.982 ± 0.006
4 | GCUGUCACCGGUGUAUUACCCUAGUGGUCGACCGGUCUGAUGAGUCUUGCUUUAGACGAAACAGC [UGCUUU] | 1.96 ± 0.064 | 1.94 ± 0.0096
5 | GCUGUCACCGGUGUAUUACCCUAGUGGUCGACCGGUCUGAUGAGUCUAGCUUUAGACGAAACAGC [AGCUUU] | 1.94 ± 0.032 | 1.908 ± 0.0022
6 | GCUGUCACCGGUGUAUUACCCUAGUGGUCGACCGGUCUGAUGAGUCUUGGAAAAGACGAAACAGC [UGGAAA] | 1.91 ± 0.02 | 1.7 ± 0.039
7 | GCUGUCACCGGUGUAUUACCCUAGUGGUCGACCGGUCUGAUGAGUCUCGGAACAGACGAAACAGC [CGGAAC] | 1.85 ± 0.026 | 1.51 ± 0.072
8 | GCUGUCACCGGUGUAUUACCCUAGUGGUCGACCGGUCUGAUGAGUCUGGGAACAGACGAAACAGC [GGGAAC] | 1.964 ± 0.016 | 1.724 ± 0.01
9 | GCUGUCACCGGUGUAUUACCCUAGUGGUCGACCGGUCUGAUGAGUCUUGGAACAGACGAAACAGC [UGGAAC] | 1.89 ± 0.032 | 1.78 ± 0.034
10 | GCUGUCACCGGUGUAUUACCCUAGUGGUCGACCGGUCUGAUGAGUCUUGGAAGAGACGAAACAGC [UGGAAG] | 1.871 ± 0.018 | 1.556 ± 0.01
11 | GCUGUCACCGGUGUAUUACCCUAGUGGUCGACCGGUCUGAUGAGUCUAGGAAUAGACGAAACAGC [AGGAAU] | 1.906 ± 0.017 | 1.739 ± 0.0039
12 | GCUGUCACCGGUGUAUUACCCUAGUGGUCGACCGGUCUGAUGAGUCUGGGACAAGACGAAACAGC [GGGACA] | 1.938 ± 0.016 | 1.802 ± 0.011
13 | GCUGUCACCGGUGUAUUACCCUAGUGGUCGACCGGUCUGAUGAGUCUUGGACAAGACGAAACAGC [UGGACA] | 1.95 ± 0.021 | 1.812 ± 0.0084
14 | GCUGUCACCGGUGUAUUACCCUAGUGGUCGACCGGUCUGAUGAGUCUAGGACAAGACGAAACAGC [AGGACA] | 1.89 ± 0.066 | 1.71 ± 0.042
15 | GCUGUCACCGGUGUAUUACCCUAGUGGUCGACCGGUCUGAUGAGUCUCGGACCAGACGAAACAGC [CGGACC] | 1.94 ± 0.037 | 1.94 ± 0.049
16 | GCUGUCACCGGUGUAUUACCCUAGUGGUCGACCGGUCUGAUGAGUCUGGGACCAGACGAAACAGC [GGGACC] | 1.98 ± 0.069 | 1.86 ± 0.052
17 | GCUGUCACCGGUGUAUUACCCUAGUGGUCGACCGGUCUGAUGAGUCUUGGACCAGACGAAACAGC [UGGACC] | 1.98 ± 0.049 | 1.95 ± 0.017
18 | GCUGUCACCGGUGUAUUACCCUAGUGGUCGACCGGUCUGAUGAGUCUCGGACGAGACGAAACAGC [CGGACG] | 2.01 ± 0.03 | 1.72 ± 0.043
19 | GCUGUCACCGGUGUAUUACCCUAGUGGUCGACCGGUCUGAUGAGUCUCGGACUAGACGAAACAGC [CGGACU] | 1.95 ± 0.042 | 1.79 ± 0.024
20 | GCUGUCACCGGUGUAUUACCCUAGUGGUCGACCGGUCUGAUGAGUCUGGGACUAGACGAAACAGC [GGGACU] | 1.872 ± 0.0089 | 1.91 ± 0.024
21 | GCUGUCACCGGUGUAUUACCCUAGUGGUCGACCGGUCUGAUGAGUCUUGGACUAGACGAAACAGC [UGGACU] | 1.93 ± 0.033 | 1.9 ± 0.032
